Laboratory results as given in publication PMC5980108, “ARE-mediated decay controls gene expression and cellular metabolism upon oxygen variations”.

T1: dTIS11-6His (UniProt P47980 1-436)
T1 sequence: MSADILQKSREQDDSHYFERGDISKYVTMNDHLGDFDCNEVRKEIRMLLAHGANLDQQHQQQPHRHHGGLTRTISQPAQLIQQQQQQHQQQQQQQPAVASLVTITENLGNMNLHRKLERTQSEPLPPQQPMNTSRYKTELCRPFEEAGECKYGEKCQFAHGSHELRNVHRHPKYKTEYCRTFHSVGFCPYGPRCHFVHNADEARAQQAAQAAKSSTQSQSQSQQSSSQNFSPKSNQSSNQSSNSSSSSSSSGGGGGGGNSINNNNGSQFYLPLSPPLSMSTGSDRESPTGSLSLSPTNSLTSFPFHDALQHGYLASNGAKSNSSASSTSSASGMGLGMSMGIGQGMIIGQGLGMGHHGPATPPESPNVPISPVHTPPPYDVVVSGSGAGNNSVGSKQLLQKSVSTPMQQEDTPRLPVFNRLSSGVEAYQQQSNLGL

B1: CecA1 ARE (ssRNA)
RNA: GAUUAUUUAUAAUUAUUUAUUUAAAGAUCUAUUUAUUC
B2: ImpL3 ARE (ITC) (ssRNA)
RNA: UGUUUAUUUUUAGUCCACCUCUCAAUUUAUUUAUUAUUUUUAUGA
B3: Scrambled ImpL3 ARE (ITC) (ssRNA)
RNA: AUUCUAUUGUUUCUUCUUAUAUAUUGUUAUUCUUCACAUAAUGUU
B4: TNF ARE (ssRNA)
RNA: CGAUUUAUUUAUUUAGA

Target: T1, dTIS11-6His
Experiment: ITC; 5 uM ZnCl2; ITC: 20 mM MES pH 6.5, 300 mM NaCl, 5 uM ZnCl2, 0.5 mM DTT, 10 C; EMSA: 20 mM Tris pH 7.8, 3 mM MgCl2, 40 mM KCl, 2 mM DTT, 5% glycerol, gel at 4 C
Details: protein: recombinant; tags: C-terminal 6His

Binder | Kd | binding result
B1 | 580 nM | 
B2 | 2400 nM | 
B3 |  | no binding
B4 | 895 nM | 
